Source: the supplement of paper PMC9170038

These sequences were tested on MS2 coat protein (assay: apparent KD of MS2 coat protein, switch OFF state (with FMN for OFF switches, without FMN for ON switches); designed switch direction (-1 OFF switch, 1 ON switch): -1; higher = weaker reporter binding). Conditions: FMN input: 0 or 200 uM; Eterna round: R93 (includes R88 designs).
Method in brief: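 Titration buffer: 100 mM Tris-HCl pH 7.5, 80 mM KCl, 4 mM MgCl2, without or with constant ligand. Designed RNA switches transcribed on-chip from Illumina sequencing clusters received SNAP-549-labelled MS2 coat protein in twofold steps from 0.7 or 1.5 nM to 3 µM. Apparent KD is the median per design of fits to normalised cluster binding curves.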

“AGCGAGUAAGGAUAUCGGAAAGGACACGAAAGUGACAAAGACGAGAAGGUACAUGAGGAUCACCCAUGUAAAAA [milkweed 25]” and “AAGAGGCUAGGAUAUACAUAUCUGAUGACUCAUCCUAAAACACAUGAGGAUCACCCAUGUAGAAGGAGCGAAUG [Anledi]” are within 1.5-fold of each other in “apparent KD of MS2 coat protein” value: 17.8 nM for the first, 16.5 nM for the second.

“AAAAUACAUGAGGAUCACCCAUGUCAGGAUAUGCUAAAAAAAAAAUUAAAAAAAAAAUGUAGAAGGGACUAAAA [Exclusion Z2]” and “AAGAAGUCAGGAUAUGCUGCUCGUCACAAAAGUGAUGAGUAGCAGAAGGGACAUGAGGAUCACCCAUGUAAACA [Opal 34]” are within 1.5-fold of each other in “apparent KD of MS2 coat protein” value: 40 nM for the first, 47.2 nM for the second.

Compared with “AAAAUACGAGGAUAUACAUGAGGAUCACCCAUGUCAAAAAAUGACUACACAAAAGAAAGUAGAAGGCGUAAAAG [Mat - Exclusion 3 - Mayanna mod - D127]”, “CCUAUGUGAGGAUAUAGCCACAUUACGAAUAAGUAGUGUGGCUAGAAGGCACAUGAGGAUCACCCAUGUAUGGG [Exclusion 4.8 (GC closing FMN)]” is 2.7-fold lower in “apparent KD of MS2 coat protein” value: 41.8 nM for the first, 15.6 nM for the second.

Going from “AAGAACUGAGGAUAUACAAAAUAAAAGAAAAGAAAGAAAGAACAUGAGGAUCACCCAUGUAGAAGGUAGAAGAA [Maakherure Amenemhat IV]” to “AAAAAGGUAGGAUAUGCUAAAUAACAUGUUGAAUAAAUAAAACAUGAGGAUCACCCAUGUAGAAGGACCAAAAA [Ex 2 Tesla 2]”, the “apparent KD of MS2 coat protein” value rises from 33.4 nM to 58.1 nM (1.7-fold).

“AAAAGGGCAGGAUAUGCGUACUCACGGGAAAACUGAAUGGUACAUGAGGAUCACCCAUGUAGAAGGGCUAAAAA [Dora Explored 19 - Jieux - Exclusion 2]” and “AAAAAAAGAGGAUAUACAUGAAAAAUAAAAAUGUAAAAAAAACAUGAGGAUCACCCAUGUAGAAGGCUUAAAAA [Ecx-I 62% 1]” are within 1.5-fold of each other in “apparent KD of MS2 coat protein” value: 37.8 nM for the first, 25.9 nM for the second.

First: GAGAAGUGAGGAUAUCGAAGACAGACGAAAAGUCUGUCAAACGAGAAGGCACAUGAGGAUCACCCAUGUGGGAA [Mat - Exaclusion 4 - Eli mod - D76]
Second: AAACACGGAGGAUAUACACCAUACAAACCUCUAAACAAAAAACAUGAGGAUCACCCAUGUAGAAGGCCGAACAA [Default title]
The “apparent KD of MS2 coat protein” value of the first is 5-fold higher: 140 nM for the first, 28 nM for the second.

Going from “AGCUAGUCAGGAUAUACGAACAUGUCGAAAGACGUGAAGGGACAUGAGGAUCACCCAUGUAGAAGGGACUAGCA [Mat - Exclusion 2 - JL mod - D1]” to “AAAAUACAUGAGGAUCACCCAUGUGAGGAUAUGCAAAACCCAUAUAAAAAGGGAAAAAGCAGAAGGUACAAAAA [wbt round 1 mod 14]”, the “apparent KD of MS2 coat protein” value falls from 120 nM to 27.7 nM (4.3-fold).

“AAAAACUGAGGAUAUACAUGAGGAUCACCCAUGUGAAAGAAAGAAAAAAGAAAAGAAAGUAGAAGGCAGAAAAA [Ruby 76]” and “ACAAGGUCAGGAUAUACAUGAGGAUCACCCAUGUGAGAAUUCGAUUAAAACACACAAAGUAGAAGGGACCAGGA [Ruby 83]” are within 1.5-fold of each other in “apparent KD of MS2 coat protein” value: 29.5 nM for the first, 33.6 nM for the second.

Compared with “AAAAAACAUGAGGAUCACCCAUGUAAGGAUAUGUGAAAAAAAAAAUAAAAAAAAAAAAGCAGAAGGUACAAAAA [LROPPY Exclusion 1 - v01_deltaG=3.64]”, “AAGAAGCGAGGAUAUACAAAAUAAAAGAAAAGAAAGAAAGAACAUGAGGAUCACCCAUGUAGAAGGCGCAAGAA [Semenkare Nebnuni]” is 2.6-fold lower in “apparent KD of MS2 coat protein” value: 74.8 nM for the first, 28.5 nM for the second.

Going from “AAAAACUCAGGAUAUAUUAUGGGACAAUGAAGGAAGAUAAAACAUGAGGAUCACCCAUGUAGAAGGGAGAAAAA [JR_Exclusion2_Sub2]” to “AGUUGGCGAGGAUAUACAUGAGGAUCACCCAUGUGAGAGUAAAAAGUGAGAAAGAGAAGUAGAAGGCGCUAACA [Ruby 53]”, the “apparent KD of MS2 coat protein” value rises from 62.8 nM to 167 nM (2.7-fold).

First: AACUAGUCAGGAUAUACGAACAUGUCAAAAGACGUGAAGGGACAUGAGGAUCACCCAUGUAGAAGGGACUAGCA [74%, Web mod - With 1 less G's]
Second: ACUUAUGAAGGAUAUACUAACAACAUACACUCAACACACACACAUGAGGAUCACCCAUGUAGAAGGUCAAACAU [JR_Exc002_Sub1205]
The “apparent KD of MS2 coat protein” value of the first is 8.1-fold higher: 147 nM for the first, 18.2 nM for the second.

Compared with “GAAAAGGCAGGAUAUACAGGAUAUAGAAGGAGGAUAUAGAGACAUGAGGAUCACCCAUGUAGAAGGGCCAAAAG [Diamond 80]”, “AAGAAGGGAGGAUAUACAAAAUAAAAGAAAAGAAAGAAAGAACAUGAGGAUCACCCAUGUAGAAGGCCUAAGAA [Merneferre Ay I]” is 13-fold lower in “apparent KD of MS2 coat protein” value: 113 nM for the first, 8.74 nM for the second.

First: GAAAAGUGAGGAUAUUCGGAUAGGAAAACGAAAACCUAUCCGAAGAAGGCACAUGAGGAUCACCCAUGUGGAAG [Mat - Exaclusion 4 - Eli mod - D46]
Second: AAAAAGGGAGGAUAUACGAAACAGGGAAACCUGAAAAAGGGACAUGAGGAUCACCCAUGUAGAAGGCCCAAGAA [Clint Eastwood 64% 5]
The “apparent KD of MS2 coat protein” value of the first is 8.7-fold lower: 30.7 nM for the first, 268 nM for the second.

Compared with “AAAGAUGCAGGAUAUACAUGAGGAUCACCCAUGUUAGACCAAAAAUGGGAAAAAGAAAGUAGAAGGGCAUAAAA [Ex 3 May 34]”, “AGAAAGUGAGGAUAUUCGGAUAGGAAAACGAAAACCUAUCCGAAGAAGGCACAUGAGGAUCACCCAUGUAAAGA [Mat - Exaclusion 4 - Eli mod - D39]” is 3.8-fold lower in “apparent KD of MS2 coat protein” value: 203 nM for the first, 54 nM for the second.

“UAAAGGCGAGGAUAUACAUGAGGAUCACCCAUGUGAAUAAAUAAUAAAAUAAAAUAAAGUAGAAGGCGCAAUAA [LROPPY Exclusion 3 - v03_deltaG=1.9 break up As]” and “AAAAAGCGAGGAUAUACGAGUCAAAGAAAAGACAAAAAGGGACAUGAGGAUCACCCAUGUAGAAGGCGCAAAAA [Fiskers exclusion D2 62% 3]” are within 1.5-fold of each other in “apparent KD of MS2 coat protein” value: 43.2 nM for the first, 47.1 nM for the second.

Compared with “CGCAAGUCAGGAUAUUCGACAAGUAAAUCAGUAGAUCAAAAGAAGAAGGGACAUGAGGAUCACCCAUGUAAAUA [JR_Exc004_Sub403]”, “GCUGUGCAAGGAUAUACAUGAGGAUCACCCAUGUGAGAGAAAAAAGUGAGAAAGAAAAGUAGAAGGUGCGUAGG [salish99-ex3-99]” is 1.7-fold higher in “apparent KD of MS2 coat protein” value: 26 nM for the first, 43.3 nM for the second.

First: CUCUUGUGAGGAUAUGUAAGAAAAGAAGAGAAAGAAAAGAAACAGAAGGCACAUGAGGAUCACCCAUGUAAGAA [EteRNA is fun!]
Second: AAAAAGUGAGGAUAUACAUGAGGAUCACCCAUGUGAAGGGAAGAGAGAGAGAGAGAGAGUAGAAGGCACAAAAA [Default title]
The “apparent KD of MS2 coat protein” value of the first is 1.5-fold higher: 146 nM for the first, 96.3 nM for the second.

Compared with “AACAGUACAGGAUAUACAUGAGGAUCACCCAUGUGAGAAUUAAGUAGAUUGCCACAAAGUAGAAGGGUACUGGA [Ruby 98]”, “AGUUGGCGAGGAUAUACAUGAGGAUCACCCAUGUGAAAUCGCGAAAAAAUAGGGAAAAGUAGAAGGCGCUGACA [73%, Moding Norbert Elias, 18]” is 3.9-fold lower in “apparent KD of MS2 coat protein” value: 80.9 nM for the first, 21 nM for the second.

First: AAUAAACAUGAGGAUCACCCAUGUGAGGAUAUACAAAUAAAUAAAAAUAAAAUAAAAAGUAGAAGGCACAAUAA [JR_Exc001_Sub001]
Second: UUCGCACAUGAGGAUCACCCAUGUCAGGAUAUCGUGGCGGGAAAAACCGGGAAACGCACGAGAAGGGACACACA [EX1 Malc#18 Mod 15 - Jieux - Exclusion 1]
The “apparent KD of MS2 coat protein” value of the first is 1.9-fold lower: 27.8 nM for the first, 51.5 nM for the second.

Going from “AACUGUACAGGAUAUACAUGAGGAUCACCCAUGUGAGAAUUAAGUGGGAAACCACAAAGUAGAAGGGUACAGGA [Mat - Exclusion 3 - JL mod - D19]” to “CGAAUACAUGAGGAUCACCCAUGUUAGGAUAUGCGAAAACAAAACAAAACAAACAAAAGUAGAAGGAGCAACAA [EXC - 1]”, the “apparent KD of MS2 coat protein” value falls from 162 nM to 20 nM (8.1-fold).

“AAAGGGUCAGGAUAUCGUUUAAUAAUAAAAUAAAUAAAGAACGAGAAGGGACAUGAGGAUCACCCAUGUAUAAA [May 76]” and “AGUCGGCGAGGAUAUACAUGAGGAUCACCCAUGUGAGAGCUAAAAGUGAGUCAGAAAAGUAGAAGGCGCUGACA [JL Lego Mod 6]” are within 1.5-fold of each other in “apparent KD of MS2 coat protein” value: 89.8 nM for the first, 94.1 nM for the second.

Compared with “GGUUGGCGAGGAUAUACAUGAGGAUCACCCAUGUGAGAGAAAAAAGAGAGAAAGAAAAGUAGAAGGCGCUGACG [salish99-ex3-52]”, “AAGAACACAGGAUAUACAUGAGGAUCACCCAUGUAAAAGAAAGAAAAGGGAAAGAAAAGUAGAAGGGUGAAGAA [Nebkheperure Tutankhaten]” is 1.9-fold lower in “apparent KD of MS2 coat protein” value: 97.8 nM for the first, 51.3 nM for the second.
